Reference: US7202329 (MYRIAD GENETICS, dated 2007)

T1: Tsg101 (aa 240-391) (human, UniProt Q99816 240-390)
T1 construct: range 240-391; also called C-terminal fragment of Tsg101; amino acid residues 240-390
T1 sequence (looked up): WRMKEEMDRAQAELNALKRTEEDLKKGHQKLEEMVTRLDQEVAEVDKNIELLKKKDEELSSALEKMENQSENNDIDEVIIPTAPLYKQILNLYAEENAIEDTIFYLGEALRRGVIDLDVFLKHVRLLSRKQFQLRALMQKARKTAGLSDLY

T2: Tsg101 (aa 140-270) (human, UniProt Q99816 140-270)
T2 construct: range 140-270
T2 sequence (looked up): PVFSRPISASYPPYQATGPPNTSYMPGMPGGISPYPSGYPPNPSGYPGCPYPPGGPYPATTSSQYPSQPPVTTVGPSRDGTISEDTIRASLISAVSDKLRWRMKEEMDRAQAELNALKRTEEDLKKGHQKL

T3: Tsg101 (aa 231-391) (human, UniProt Q99816 231-390)
T3 sequence (looked up): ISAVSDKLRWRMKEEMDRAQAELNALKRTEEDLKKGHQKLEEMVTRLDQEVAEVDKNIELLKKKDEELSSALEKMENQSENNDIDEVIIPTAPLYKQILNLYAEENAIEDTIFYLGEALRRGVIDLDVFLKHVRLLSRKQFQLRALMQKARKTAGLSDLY

T4: Tsg101 (aa 12-326) (human, UniProt Q99816 12-326)
T4 sequence (looked up): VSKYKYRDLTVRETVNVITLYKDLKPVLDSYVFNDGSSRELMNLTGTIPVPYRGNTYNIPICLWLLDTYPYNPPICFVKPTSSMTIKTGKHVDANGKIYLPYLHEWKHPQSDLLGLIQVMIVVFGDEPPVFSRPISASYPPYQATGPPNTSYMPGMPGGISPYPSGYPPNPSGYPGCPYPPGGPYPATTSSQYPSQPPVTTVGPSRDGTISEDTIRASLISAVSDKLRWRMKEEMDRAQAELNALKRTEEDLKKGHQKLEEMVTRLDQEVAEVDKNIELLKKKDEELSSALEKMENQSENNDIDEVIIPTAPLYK

T5: Tsg101 (aa 50-391) (human, UniProt Q99816 50-390)
T5 construct: range 50-391
T5 sequence (looked up): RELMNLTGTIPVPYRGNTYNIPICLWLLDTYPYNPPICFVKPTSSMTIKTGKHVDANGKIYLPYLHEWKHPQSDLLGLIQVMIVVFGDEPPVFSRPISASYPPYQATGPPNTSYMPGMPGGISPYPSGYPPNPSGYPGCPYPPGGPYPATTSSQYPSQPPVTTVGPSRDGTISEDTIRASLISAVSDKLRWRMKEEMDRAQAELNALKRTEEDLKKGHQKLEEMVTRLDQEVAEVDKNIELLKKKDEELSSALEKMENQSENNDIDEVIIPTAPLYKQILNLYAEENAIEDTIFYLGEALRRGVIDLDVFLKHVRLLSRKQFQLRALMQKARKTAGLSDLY

B1: GTPase-activating protein 1 (aa 1439-1567) (other, UniProt P46940 1439-1567, looked up)
chain: KKSKSVKEDSNLTLQEKKEKIQTGLKKLTELGTVDPKNKYQELINDIARDIRNQRRYRQRRKAELVKLQQTYAALNSKATFYGEQVDYYKSYIKTCLDNLASKGKVSKKPREMKGKKSKKISLKYTAAR
notes: range 1439-1567; also called IQGAP1; IQGAP
B2: GTPase-activating protein 1 (aa 1463-1568) (other, UniProt P46940 1463-1568, looked up)
chain: LKKLTELGTVDPKNKYQELINDIARDIRNQRRYRQRRKAELVKLQQTYAALNSKATFYGEQVDYYKSYIKTCLDNLASKGKVSKKPREMKGKKSKKISLKYTAARL
notes: range 1463-1568; also called IQGAP1; IQGAP
B3: mitotic spindle coiled-coil related protein (aa 942-1021) (other, UniProt Q96R06 942-1021, looked up)
chain: LGSDKSAFTRVASMVSLQPAETPGMEESLAEMSIMTTELQSLCSLLQESKEEAIRTLQRKICELQARLQAQEEQHQEVQK
notes: range 942-1021
B4: GTPase-activating protein 1 (aa 1404-1553) (other, UniProt P46940 1404-1553, looked up)
chain: LTEILETPATSEQEAEHQRAMQRRAIRDAKTPDKMKKSKSVKEDSNLTLQEKKEKIQTGLKKLTELGTVDPKNKYQELINDIARDIRNQRRYRQRRKAELVKLQQTYAALNSKATFYGEQVDYYKSYIKTCLDNLASKGKVSKKPREMKG
notes: range 1404-1553; also called IQGAP1; IQGAP
B5: GTPase-activating protein 1 (aa 1406-1547) (other, UniProt P46940 1406-1547, looked up)
chain: EILETPATSEQEAEHQRAMQRRAIRDAKTPDKMKKSKSVKEDSNLTLQEKKEKIQTGLKKLTELGTVDPKNKYQELINDIARDIRNQRRYRQRRKAELVKLQQTYAALNSKATFYGEQVDYYKSYIKTCLDNLASKGKVSKK
notes: range 1406-1547; also called IQGAP1; IQGAP
B6: intersectin 1 (aa 437-584) (other, UniProt Q15811 437-584, looked up)
chain: AKRELERQRQLEWERNRRQELLNQRNKEQEDIVVLKAKKKTLEFELEALNDKKHQLEGKLQDIRCRLTTQRQEIESTNKSRELRIAEITHLQQQLQESQQMLGRLIPEKQILNDQLKQVQQNSLHRDSLVTLKRALEAKELARQHLRD
notes: range 437-584
B7: GTPase-activating protein 1 (aa 1439-1565) (other, UniProt P46940 1439-1565, looked up)
chain: KKSKSVKEDSNLTLQEKKEKIQTGLKKLTELGTVDPKNKYQELINDIARDIRNQRRYRQRRKAELVKLQQTYAALNSKATFYGEQVDYYKSYIKTCLDNLASKGKVSKKPREMKGKKSKKISLKYTA
notes: range 1439-1565; also called IQGAP1; IQGAP
B8: intersectin 1 (aa 436-547) (other, UniProt Q15811 436-547, looked up)
chain: AAKRELERQRQLEWERNRRQELLNQRNKEQEDIVVLKAKKKTLEFELEALNDKKHQLEGKLQDIRCRLTTQRQEIESTNKSRELRIAEITHLQQQLQESQQMLGRLIPEKQI
notes: range 436-547
B9: hypothetical protein FLJ10540 (aa 2-132) (other, UniProt Q53EZ4 2-132, looked up)
chain: SSRSTKDLIKSKWGSKPSNSKSETTLEKLKGEIAHLKTSVDEITSGKGKLTDKERHRLLEKIRVLEAEKEKNAYQLTEKDKEIQRLRDQLKARYSTTTLLEQLEETTREGERREQVLKALSEEKDVLKQQL
B10: hypothetical protein FLJ10540 (aa 1-115) (other, UniProt Q53EZ4 1-115, looked up)
chain: MSSRSTKDLIKSKWGSKPSNSKSETTLEKLKGEIAHLKTSVDEITSGKGKLTDKERHRLLEKIRVLEAEKEKNAYQLTEKDKEIQRLRDQLKARYSTTTLLEQLEETTREGERRE
notes: range 1-115
B11: hypothetical protein FLJ10540 (aa 1-74) (other, UniProt Q53EZ4 1-74, looked up)
chain: MSSRSTKDLIKSKWGSKPSNSKSETTLEKLKGEIAHLKTSVDEITSGKGKLTDKERHRLLEKIRVLEAEKEKNA
notes: range 1-74
B12: hypothetical protein FLJ10540 (aa 1-120) (other, UniProt Q53EZ4 1-120, looked up)
chain: MSSRSTKDLIKSKWGSKPSNSKSETTLEKLKGEIAHLKTSVDEITSGKGKLTDKERHRLLEKIRVLEAEKEKNAYQLTEKDKEIQRLRDQLKARYSTTTLLEQLEETTREGERREQVLKA
notes: range 1-120
B13: Tropomyosin TM30 p1 (TPM4) (aa 91-142) (other, human, UniProt P67936 91-142, looked up)
chain: MKVIENRAMKDEEKMEIQEMQLKEAKHIAEEADRKYEEVARKLVILEGELER
notes: range 91-142
B14: Rho-associated (ROCK1) (aa 462-617) (other, UniProt Q13464 462-617, looked up)
chain: KIMKELDEEGNQRRNLESTVSQIEKEKMLLQHRINEYQRKAEQENEKRRNVENEVSTLKDQLEDLKKVSQNSQLANEKLSQLQKQLEEANDLLRTESDTAVRLRKSHTEMSKSISQLESLNRELQERNRILENSKSQTDKDYYQLQAILEAERRDR
notes: also called Rho-associated coiled coil-containing kinase ROCK1
B15: Zinc finger protein 231 (ZNF231) (aa 2308-2438) (other, UniProt Q9UPA5 2308-2438, looked up)
chain: EEPLPTTTPAAIKEAAGAPAPAPLAGQKPPADAAPGGGSGALSRPGFEKEEASQEERQRKQQEQLLQLERERVELEKLRQLRLQEELERERVELQRHREEEQLLVQRELQELQTIKHHVLQQQQEERQAQF
notes: range 2308-2438
B16: Tropomyosin TM30 p1 (TPM4) (aa 79-142) (other, human, UniProt P67936 79-142, looked up)
chain: EAEKAADESERGMKVIENRAMKDEEKMEIQEMQLKEAKHIAEEADRKYEEVARKLVILEGELER
notes: range 79-142
B17: Chromosome-associated polypeptide HCAP (aa 208-300) (other, human, UniProt Q9UQE7 208-300, looked up)
chain: EELAQYQKWDKMRRALEYTIYNQELNETRAKLDELSAKRETSGEKSRQLRDAQQDARDKMEDIERQVRELKTKISAMKEEKEQLSAERQEQIK
notes: range 208-300
B18: Golgi autoantigen (Golgin-84) (aa 198-501) (other, UniProt Q8TBA6 198-501, looked up)
chain: SKENVSSNAACPDHTPTPNDDGKSHELSNLRLENQLLRNEVQSLNQEMASLLQRSKETQEELNKARARVEKWNADHSKSDRMTRGLRAQVDDLTEAVAAKDSQLAVLKVRLQEADQLLSTRTEALEALQSEKSRIMQDQSEGNSLQNQALQTFQERLHEADATLKREQESYKQMQSEFAARLNKVEMERQNLAEAITLAERKYSDEKKRVDELQQQVKLYKLNLESSKQELIDYKQKATRILQSKEKLINSLKEGSGFEGLDSSTASSMELEELRHEKEMQREEIQKLMGQIHQLRSELQDMEA
notes: range 198-501
B19: Golgi autoantigen (Golgin-84) (aa 198-497) (other, UniProt Q8TBA6 198-497, looked up)
chain: SKENVSSNAACPDHTPTPNDDGKSHELSNLRLENQLLRNEVQSLNQEMASLLQRSKETQEELNKARARVEKWNADHSKSDRMTRGLRAQVDDLTEAVAAKDSQLAVLKVRLQEADQLLSTRTEALEALQSEKSRIMQDQSEGNSLQNQALQTFQERLHEADATLKREQESYKQMQSEFAARLNKVEMERQNLAEAITLAERKYSDEKKRVDELQQQVKLYKLNLESSKQELIDYKQKATRILQSKEKLINSLKEGSGFEGLDSSTASSMELEELRHEKEMQREEIQKLMGQIHQLRSELQ
notes: range 198-497
B20: Accessory proteins BAP31/BAP29 (BAP31) (aa 184-246) (other, UniProt P51572 184-246, looked up)
chain: LKADLQKLKDELASTKQKLEKAENQVLAMRKQSEGLTKEYDRLLEEHAKLQAAVDGPMDKKEE
notes: range 184-246
B21: hypothetical protein FLJ10540 (aa 115-231) (other, UniProt Q53EZ4 115-231, looked up)
chain: EQVLKALSEEKDVLKQQLSAATSRIAELESKTNTLRLSQTVAPNCFNSSINNIHEMEIQLKDALEKNQQWLVYDQQREVYVKGLLAKIFELEKKTETAAHSLPQQTKKPESEGYLQE
B22: hypothetical protein FLJ10540 (aa 1-231) (other, UniProt Q53EZ4 1-231, looked up)
chain: MSSRSTKDLIKSKWGSKPSNSKSETTLEKLKGEIAHLKTSVDEITSGKGKLTDKERHRLLEKIRVLEAEKEKNAYQLTEKDKEIQRLRDQLKARYSTTTLLEQLEETTREGERREQVLKALSEEKDVLKQQLSAATSRIAELESKTNTLRLSQTVAPNCFNSSINNIHEMEIQLKDALEKNQQWLVYDQQREVYVKGLLAKIFELEKKTETAAHSLPQQTKKPESEGYLQE
B23: hypothetical protein FLJ10540 (aa 1-110) (other, UniProt Q53EZ4 1-110, looked up)
chain: MSSRSTKDLIKSKWGSKPSNSKSETTLEKLKGEIAHLKTSVDEITSGKGKLTDKERHRLLEKIRVLEAEKEKNAYQLTEKDKEIQRLRDQLKARYSTTTLLEQLEETTRE
notes: range 1-110
B24: hypothetical protein FLJ10540 (aa 1-117) (other, UniProt Q53EZ4 1-117, looked up)
chain: MSSRSTKDLIKSKWGSKPSNSKSETTLEKLKGEIAHLKTSVDEITSGKGKLTDKERHRLLEKIRVLEAEKEKNAYQLTEKDKEIQRLRDQLKARYSTTTLLEQLEETTREGERREQV
notes: range 1-117

These binders were tested against T1, Tsg101 (aa 240-391) (assay: yeast two-hybrid).
B1: binds. B2: binds. B3: binds. B4: binds. B5: binds. B6: binds. B7: binds. B8: binds.

The binders below were run against T2, Tsg101 (aa 140-270) (assay: yeast two-hybrid).
B9: binds. B10: binds. B11: binds. B12: binds.

What follows are binders tested against T3, Tsg101 (aa 231-391) (assay: yeast two-hybrid).
B13: binds. B14: binds. B15: binds. B16: binds. B17: binds.

The binders below were run against T4, Tsg101 (aa 12-326) (assay: yeast two-hybrid).
B18: binds. B19: binds. B20: binds.

What follows are binders tested against T5, Tsg101 (aa 50-391) (assay: yeast two-hybrid).
B21: binds. B22: binds. B23: binds. B24: binds.
